Measured values reported in US7521540B2, “CYR61 compositions and methods” (Munin Corporation, priority 1996, dated 2009).

B1: Cyr61: Cysteine-rich ECM signaling protein; murine sequence SEQ ID NO:2, recombinant from Baculovirus-infected Sf9 cells (protein, listed as Mus musculus)
chain: MSSSTFRTLAVAVTLLHLTRLALSTCPAACHCPLEAPKCAPGVGLVRDGCGCCKVCAKQLNEDCSKTQPCDHTKGLECNFGASSTALKGICRAQSEGRPCEYNSRIYQNGESFQPNCKHQCTCIDGAVGCIPLCPQELSLPNLGCPNPRLVKVSGQCCEEWVCDEDSIKDSLDDQDDLLGLDASEVELTRNNELIAIGKGSSLKRLPVFGTEPRVLFNPLHAHGQKCIVQTTSWSQCSKSCGTGISTRVTNDNPECRLVKETRICEVRPCGQPVYSSLKKGKKCSKTKKSPEPVRFTYAGCSSVKKYRPKYCGSCVDGRCCTPLQTRTVKMRFRCEDGEMFSKNVMMIQSCKCNYNCPHPNEASFRLYSLFNDIHKFRD
B2: Fisp12: Cysteine-rich murine protein, SEQ ID NO:6, mouse ortholog of CTGF (protein, listed as Mus musculus)
chain: MLASVAGPISLALVLLALCTRPATGQDCSAQCQCAAEAAPHCPAGVSLVLDGCGCCRVCAKQLGELCTERDPCDPHKGLFCDFGSPANRKIGVCTAKDGAPCVFGGSVYRSGESFQSSCKYQCTCLDGAVGCVPLCSMDVRLPSPDCPFPRRVKLPGKCCKEWVCDEPKDRTAVGPALAAYRLEDTFGPDPTMMRANCLVQTTEWSACSKTCGMGISTRVTNDNTFCRLEKQSRLCMVRPCEADLEENIKKGKKCIRTPKIAKPVKFELSGCTSVKTYRAKFCGVCTDGRCCTPHRTTTLPVEFKCPDGEIMKKNMMFIKTCACHYNCPGDNDIFESLYYRKMYGDMA

Assays:
Type in all cases: cell-based, human
HUVE cells [1] = experiment: Fisp12 cell attachment assay, HUVE cells; conditions: coating 20 μg/ml, HUVE cells
Protocol: The capacity of Fisp12 to affect cell adhesion was also investigated. Fisp12 cell attachment assays were performed essentially as described (Oliver et al., [1989]). 96-well immunological plates were coated for 16 hours at 4° C. with 20 μg/ml Cyr61, Fisp12 or fibronectim (Gibco BRL) in PBS containing 0.1 mg/ml BSA and blocked with 10 mg/ml BSA for 1 hour at room temperature. HUVE cells were plated at 10^4 cells/well in F12K media with 10% FBS (Hyclone Laboratories, Inc., Logan, Utah); NIH 3T3 fibroblasts were plated at 3×10^4 cells/well and Mv1Lu cells were plated at 5×10^4 cells/well in minimal essential medium (MEM) with 10% FBS. After 1 hour incubation cells were fixed, stained with methylene blue and quantified as described (Oliver et al., [1989]). Cell spreading was examined on cells plated on 100 mm polystyrene petri dishes coated with 2.5 ml of a 20 μg/ml solution of Cyr61, Fisp12 or fibronectin. 10^7 cells were plated on each dish and cell spreading was analyzed 90 minutes after plating by microscopy at 100× magnification.

HUVE cells [2] = experiment: Thymidine incorporation (mitogen potentiation), HUVE cells
Protocol: Human umbilical vein endothelial cells were plated essentially as described above for 3T3 cells and exposed to a constant amount of murine Cyr61; controls received no Cyr61. Different plates were then exposed to different levels of bFGF, comprising a series of bFGF concentrations ranging from 0-10 ng/ml. […] At 1 ng/ml bFGF, however, HUVE cells increased their thymidine incorporation in the presence of bFGF to 6×10^2 cpm; in the presence of 1 ng/ml bFGF and murine Cyr61, HUVE cells incorporated 1.3×10^3 cpm. At 10 ng/ml bFGF, cells exposed to bFGF incorporated about 1.8×10^3 cpm thymidine; cells receiving 10 ng/ml bFGF and Cyr61 incorporated approximately 6.1×10^3 cpm.
The capacity of murine Cyr61 to potentiate the mitogenic activity of bFGF was verified by a thymidine incorporation assay involving HUVE cells and various combinations of bFGF, Cyr61, and anti-Cyr61 antibodies. Cells were plated and grown as described above. The following combinations of supplements (final plate concentrations noted parenthetically) were then pre-incubated for 1 hour before addition to individual plates: 1) pre-immune antiserum (3%); 2) bFGF (15 ng/ml) and pre-immune antiserum (3%); 3) pre-immune antiserum (3%) and Cyr61 (4 μg/ml); 4) pre-immune antiserum (3%), Cyr61 (4 μg/ml), and bFGF (15 ng/ml); 5) anti-Cyr61 antiserum (3%); 6) anti-Cyr61 antiserum and bFGF (15 ng/ml); 7) anti-Cyr61 antiserum (3%) and Cyr61 (4 μg/ml); and 8) anti-Cyr61 antiserum (3%), Cyr61 (4 μg/ml), and bFGF (15 ng/ml).
DNA synthesis for HUVE cells and NIH 3T3 fibroblasts was measured by thymidine incorporation as described previously (Kireeva et al., [1996]) with minor modifications. HUVE cells were grown in 24-well plates to a subconfluent state, serum-starved for 24 hours and treated with F12K medium containing 10% fetal bovine serum (FBS), 1 μCi/ml [^3H]-thymidine and 10 ng/ml basic Fibroblast Growth Factor (bFGF) (Gibco-BRL, Inc.) with various concentrations of Cyr61 and Fisp12 as indicated. NIH 3T3 fibroblasts were grown to subconlfluence, serum-starved for 48 hours, and treated with Minimal Essential Medium (MEM) containing 0.5% FBS, 1 μCi/ml [^3H]-thymidine, bFGF and various concentrations of Cyr61 or Fisp12. Thymidine incorporation into the trichloroacetic acid-insoluble fraction was determined after 24 hour incubation. Logarithmically grown mink lung epithelial cells (Mv1lu, CCL64) were treated with various concentrations of TGF-β1 (Gibco-BRL) and 2 μg/ml of Cyr61 or Fisp12 for 18 hours; [^3H]-thymidine was then added to 1 μCi/ml for 2 hours. Thymidine incorporation was determnined as described above.

platelets = experiment: Platelet adhesion assay; conditions: for adhesion of unactivated platelets: PGl2 100 nM, coating 25 μg/ml; for adhesion of activated platelets: thrombin, U46619 or ADP
Protocol: Microtiter wells were coated with purified recombinant Fisp12/mCTGF or Cyr61, and the adhesion of isolated platelets to these proteins was detected with ^125I-mAb15, an anti-β3 monoclonal antibody (Frelinger et al., J. Biol. Chem 265:6346-6352 [1990]). Platelets were obtained from venous blood drawn from healthy donors and collected into acid-citrate-dextrose (ACD). Washed platelets were prepared by diffenential centrifugation as described (Kinlough-Rathbone et al. Thromb. Haemostas 2:291-308 [1997]), and finally resuspended in HEPES-Tyrode's buffer (5 mM HEPES, pH 7.35, 1 mM MgCl2, 1 mM CaCl2, 135 mM NaCl, 2.7 mM KCl, 11.9 mM NaHCO3, 1 mg/ml dextrose and 3.5 mg/ml BSA). The platelet concentration was adjusted to […].
Microtiter wells (Immulon 2 removawell strips, Dynex Technologies, Inc.) were coated with Cyr61, Fisp12/mCTGF, or fibrinogen (25 μg/ml, 50 μl/well) incubated overnight at 22° C., and then blocked with 3% BSA at 37° C. for 2 hours. Washed platelets were added to the wells (100 μl/well) in the presence and absence of platelet agonists and incubated at 37° C. for 30 minutes. The wells were washed with HEPES-Tyrode's buffer and adherent platelets were detected with ^125I-mAb15, an anti-β3 monoclonal antibody. Exposure to the labeled antibody ([…], 50 μl/well) proceeded for 1 hour at 22° C. After extensive washing with HEPES-Tyrode's buffer, bound radioactivity was determined by γ-counting. In inhibition studies, washed platelets were pre-incubated with blocking peptides or antibodies at 37° C. for 15 minutes prior to addition to microtiter wells.
The anti-β3 antibody was radioiodinated with carrier-free Na^125I (Amersham Corp.) using the IODO-BEADS iodination reagent (Pierce) to a specific activity of approximately 2 μCi/μg. […] As controls, BSA- and fibrinogen-coated (KabiVitrum Inc.) wells were also used. Initially, the adhesion of unactivated versus activated platelets to immobilized Fisp12/mCTGF and Cyr61 was compared. To ensure that plateltes were not activated during the washing procedures, PGl2 (100 nM), which inhibits activation by raising platelet cAMP levels, was added to the platelet suspensions. […]

Molecule	cell attachment to coated dishes (HUVE cells [1])	thymidine incorporation, baseline (HUVE cells [2]; 0-0.1 ng/ml bFGF, presence or absence of Cyr61, 72 hours)	thymidine incorporation with bFGF and Cyr61 (HUVE cells [2]; 1 ng/ml bFGF)	thymidine incorporation with bFGF and Cyr61 (HUVE cells [2]; 10 ng/ml bFGF)	adhesion of unactivated platelets (platelets)	adhesion of activated platelets (platelets)	enhancement of FGF-induced DNA synthesis (HUVE cells [2]; HUVE-cells, bFGF 10 ng/ml)
B1	promoted the attachment	approximately 4×10^2 cpm	1.3×10^3 cpm	approximately 6.1×10^3 cpm	failed to adhere	dramatic increase in platelte adhesion	–
B2	promoted the attachment	–	–	–	failed to adhere	dramatic increase in platelte adhesion	enhance DNA synthesis induced by fibroblast growth factor
